B1: TPR t1 (parent)
chain: GACCAAUCUGCCCUCAGAGCUCGAGAACAUCUUCGGAUGCAGAGGAGGCAGGCUUCGGUGGCGCGAUAGCGCCAACGUCCUCAACCUCCAAUGCAUCCCACCACAUGAUGAUGCCUGAAGAGCCUUGGUUUUUUG

Variants of: B1
Test: polymerase ribozyme fitness, log enrichment relative to wild type (log ratio); higher = more active; in vitro selection for triplet polymerase activity
Method in brief: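 Only genotypes with ≥10 input reads and ≥1 read per output were kept after Illumina sequencing of input and output libraries. These libraries were PCR-built, transcribed mutants of each subunit of a heterodimeric triplet polymerase ribozyme, each put through one triplicate in vitro selection round with frozen incubation at −7 °C, gel excision of extended constructs, streptavidin-bead capture and RT-PCR. Fitness is a logarithmic ratio of genotype enrichment to wild-type enrichment, from inverse-variance-weighted replicate averages, with the logarithm in base 2.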

Variant | polymerase ribozyme fitness (log ratio)
GACCAAACUGCCCUCAGAGCUCGAGAACAUCUUCGGAUGCAGAGGAGGCAGGCUUCGGUGGCGCGAUAGCGCGAACGUCGUCAACCUCCAAUGCAUCCCACCACAUGAUGAUGCCUGAAGAGCCUUGGUUUUUUG | -6.07
GACCAAACUGCCCUCAUAGCUCGAGAACAUCUUCGGAUGCAGAGGAGGCAGGCUUCGGUGGCGCGAUAGCGCCAACGUCCUCAACCUCCAAUGCAUCCCACCACAUGAUGAUGCCUGAAGAGCCUUGGUUUUUUG | -1.25
GACCAAACUGCCCUCAGAGCUCGAGAACAUCUUCGGAUGCAGAGGAGGCAGGCUUCGGUGGCGCGAUAGCGUCAACGUCCUCAACCUCCAAUGCAUCCCACCACAUGAUGAUGCCUGAAGAGCCUUGGUUUUUUG | -0.218
GACCAAACUGCCCUCAGAGCUCGAGAACAUCUUCGGAUGCAGAGGAGGCAGGUUUCGGUGGCGCGAUAGCGCCCACGUCCUCAACCUCCAAUGCAUCCCACCACAUGAUGAUGCCUGAAGAGCCUUGGUUUUUUG | 0.916
GACCAAACUACCCUCAGAGCUCGAGAACAUCUUCGGAUGCAGAGGAGGCAGGUUUCGGUGCCGCGAUAGCGCCAACGUCCUCAACCUCCAAUGCAUCCCACCACAUGAUGAUGCCUGAAGAGCCUUGGUUUUUUG | -0.31
GACCAAACUGCCCUCAGAGCUCGAGAACAUCUUCGGAUGCAGAGGAGGCAGGCUUAGGUGGCGCGAUAGCGCCAACGUCCUCAACCUCCAAUGUAUCCCACCACAUGAUGAUGCCUGAAGAGCCUUGGUUUUUUG | -0.558
GACCAAACUUCCCUCAGAGCUCGAGAACAUCUUCGGAUGCAGAGGAGGCAGGCUUCGGUGGCGCGAUAGCGCCAACGUCCUCAACCUCCAAUACAUCCCACCACAUGAUGAUGCCUGAAGAGCCUUGGUUUUUUG | -0.792
GACCAAACUGCCCUCAGAGCUCGAGAACAUCUUCGGAUGCAGAGGAGGCAGGCUUCGGUGGCGCGAUAGCGCCAACGUCCUCAACGUCCCAUGCAUCCCACCACAUGAUGAUGCCUGAAGAGCCUUGGUUUUUUG | -1.43
GACCAAACUCCCCUCAGAGCUCGAGAACAUCUUCGGAUGCAGAGGAGGCAGGCUUUGGUGGUGCGAUAGCGCCAACGUCAUCAUCCUCCAAUGCAUCCCACCACAUGAUAAUGCCUGAAGAGCAUUGGUUUUAUG | -7.38
GACCAAACUGCCCUCAGAGCUCGAGAACAUCUUCGGAUGCAGAGGAGGCAGGAUUCGGUGGCGCGAUAGCGCCAACGUCCUCAACCUCCAAUGCAUCCCACCACAUGAUGAUGCCUGAAGAGCCUUGGUUUUUUG | -0.0334
GACCAAACUGCCCUCAGAGCUCGAGAACAUCUUCGGAUGCAGAGGAGGCAGGCUUCGGUGGCGCGAUAGCGCCAACGUCCUCAACCUCCAAUGCAUCCCACCACAUGAUGAUGACUGAAGAGCCUUGGUUUUUUG | -1.29
GACCAAACUGCCCUCAGAGCUCGAGAACAUCUUCGGAUGCAGAGGAGGCAGGCUUCGGUGGCGCGAUAGCGCCAACGUCCUCAACCUCCAAUGCAUCCCACCACAUGAUGAUGGCUGAAGAGCCUUGGUUUUUUG | -2.07
GACCAAACUGCCCUCAGAGCUCGAGAACAUCUUCGGAUGCAGAGGAGGCAGGCUUCGGUGGCGCGAUAGCGCCAACGUGCUCAACCUCCAAUGCAUCCCACCACAUGAUGAUGCCUGAAGAGCCUUGGUUUUUUG | -1.03
GACCAAACUGCCCUCAGAGCUCGAGAACAUCUUCGGAUGCAGAGGAGGCAGGCUUCGGUGGCGCGAUAGCGCCAACGUGCUCAACCUCCAAUGCAUCCCACCACAUGAUGAUGCCUGAAGAGUCUUGGUUUUUUG | 0.729
GACCAAACUGCCCUCAGAGCUCGAGAACAUCUUCGGAUACAGAGGAGGCUGGGUUCGGUGGCGCGAUAGCGCCAACGUCCUCAACCUCCAAUGCAUCCCACCACAUGAUGAUGCCUGAAGAGCCUUGGUCUUUUG | -4.47
GACCAAACUGCCCUCAGAGCUCGAGAACAUCUUCGGAUGCAGAGGAGGCAGGCUUCGGUGGCGCGAUAGCGCCAACGUCCUCAACGUCCAAUGCAUCCCACCACAUGAUGAUGCCUGAAGAGCCUUGGUUUUUUG | -0.205
GACCAAACUGCCCUCAGAGCUCGAGAACAUCUUCGGAUGCAGAGGAGGCAGGCUUUGGUGGCGCGAUAGCGCCAACGUCCUCAACCUCCAAUGCAUCCCACCACAUGAUGAUGCCUGAAGAGCCUUGGUUUUUUG | 0.211
GACCAAACUACCCUCAGAGCUCGAGAACAUCUUCGGAUGCAGAGGAGGCAGACUUCGGUGGCGCGAUAGCGCCAACGUCCUCAACCUCCAAUGCAUCCCACCACAUGAUGAUGCUUGAAGAGCCUUGGUUUUUUG | -1.15
GACCAAACUGCCCUCAUAGCUCGAGAACAUCUUCGGAUGCAGAGGAGGCAGGCUUCGGUGGCGCGAUAGCGCCAACGUCCUCAACCUCCAAUGCAUCCCACCACAUGAUGCUGCCUGAAGAGCCUUGGUUUUUUU | -3.91
GACCAAACUGCCCUCAUAGCUCGAGAACAUCUUCGGAUGCAGAGGAGGCAGGCUUCGGUGGUGCGAUAGCGCCAACGUCCUCAACCUCCAAUGCAUCCCACCACAUGAUGCUGCCUGAAGAGCCUUGGUUUUUUU | -4.01
GACCAAACUGCCCUCAGAGCUCGAGAACAUCUUCAGAUGCAGAGGAGGCAGGCUUCGGUGGCGCGAUAGCACCAACCUCCUCAACCUCCAAUGCAUCCCACCACAUGAUGAUGCCUGAAGAGCAUUGGUUUUUUG | -5.19

Reference: the RNAGym collection of RNA variant scans (doi:10.1073/pnas.2313332121)
